# Results taken from doi:10.1101/2021.02.27.433189.
# Changes are numbered by the printed parent chain.
# B1: ncAA-tagged TARP γ2 S44* with eGFP in the C-tail (natural protein)
# chain: MGLFDRGVQMLLTTVGAFAAFSLMTIAVGTDYWLYSRGVCKTKKVSENETSKKNEEVMTHSGLWRTCCLEGNFKGLCKQIDHFPEDADYEADTAEYFLRAVRASSIFPILSVILLFMGGLCIAASEFYKTRHNIILSAGIFFVSAGLSNIIGIIVYISANAGDPSKSDSKKNSYSYGWSFYFGALSFIIAEMVGVLAVHMFIDRHKQLRATARATDYLQASAITRIPSYRYRYQRRSRSSSRSTEPSHSRDASPVGVKGFNTLPSTEISMYTLSRDPLKAATTPTATYNSDRDNSFLQVHNCIQKDSKDSLHANTANRRTTPV
# modifications: TCO*A (trans-cyclooct-2-en-L-lysine) at position 44
# B2: TARP γ2 with eGFP in the C-tail (natural protein)
# chain: B1 chain with K44S
# B3: TARP γ8 with eGFP in the C-tail (natural protein)
# chain: MESLKRWNEERGLWCEKGVQVLLTTIGAFAAFGLMTIAISTDYWLYTRALICNTTNLTAGDDGPPHRGGSGSSEKKDPGGLTHSGLWRICCLEGLKRGVCVKINHFPEDTDYDHDSAEYLLRVVRASSIFPILSAILLLLGGVCVAASRVYKSKRNIILGAGILFVAAGLSNIIGVIVYISANAGEPGPKRDEEKKNHYSYGWSFYFGGLSFILAEVIGVLAVNIYIERSREAHCQSRSDLLKAGGGAGGSGGSGPSAILRLPSYRFRYRRRSRSSSRGSSEASPSRDASPGGPGGPGFASTDISMYTLSRDPSKGSVAAGLASAGGGGGGAGVGAYGGAAGAAGGGGTGSERDRGSSAGFLTLHNAFPKEAASGVTVTVTGPPAAPAPAPPAPAAPAPGTLSKEAAASNTNTLNRKTTPV
# B4: ncAA-tagged TARP γ8 S72* with eGFP in the C-tail (natural protein)
# chain: B3 chain with S72K
# modifications: TCO*A (trans-cyclooct-2-en-L-lysine) at position 72
# Target: AMPAR subunit GluA1, flip isoform (UniProt P19490)
row,Binder,"receptor recovery from desensitization, τrec (GluA1 alone 162.6 ms)"
1,B1,62.3 ms
2,B2,57.1 ms
3,B3,40.9 ms
4,B4,45.8 ms
